B1: Hairpin Ribozyme (parent)
chain: GUCCUCUUUCACGUGCGCGUGAAAGAGAGAAGUGAACCAGAGAAACACACGUUGUGGUAUAUUACCUGGUA

Variants of B1 are the subject of this data set. Nature of the data set: self-cleavage, relative activity (ratio to wild type); higher = more cleavage; co-transcriptional.
For A36C A44U, the self-cleavage amounted to 0.307.
Under A36C A44C stands 0.122; under A36C A44G, 0.157; under A36C U55A, 0.243.
Consider A36C U55G, for which the self-cleavage is 0.174.
Regarding G34U U70G, the self-cleavage worked out at 1.48.
Consider A36C G68A, for which the self-cleavage is 0.193.
In the case of A36C G68C, the self-cleavage came out at 0.153.
Under A36C G68U stands 0.213; under A35U A36U, 0.524.
Under A36C U70C stands 0.607.
Turning to A36U C65G, the self-cleavage was 0.106.
As for A36C U63A, the figure is 0.0749; as for G34U A41C, 1.55; as for G34U A41G, 0.857.
Take A36U U70A: the self-cleavage amounted to 0.775.
Under A36U U70C stands 0.473.
Under A36U U70G stands 0.665; under A36G U62C, 0.328.
For the variant A36U U67A, the self-cleavage was 0.235.
Take A36U U67G: the self-cleavage was 0.177.
Under A36U C46U stands 0.31; under A36G U70G, 1.03; under C37A G51A, 0.535.
As for A36G C46U, the figure is 0.189.
For A36G C65A, the self-cleavage came to 0.73.
In the case of A35U U70A, the self-cleavage was 0.703.
In the case of A35U U70C, the self-cleavage is 0.702.
As for A35U U55A, the figure is 0.129; as for A36U U62C, 0.185.
For A35C G68C, the self-cleavage was found to be 0.145.
As for A35C G68A, the figure is 0.279; as for A35U C38U, 0.216.
With A35U C38A, the self-cleavage turned out to be 0.135.
Under A35C A61G stands 0.234; under A35C A61C, 0.151.
As for C37A A47C, the figure is 0.108; as for C37A A47U, 0.19.
As for A35G C66U, the figure is 0.553.
For the variant A36C C37G, the self-cleavage stood at 0.215.
As for A36G A71G, the figure is 0.982; as for C37A G54A, 0.187; as for C37A G54C, 0.114.
Under C37A G54U stands 0.269; under A36G U67C, 0.335.
Under A36G A43C stands 0.228; under A36G A43U, 0.0504; under A35G U60A, 1.11.
For A35U A49G, the self-cleavage stood at 0.31.
Under A35C U55C stands 0.0658; under G34U C37G, 1.01; under C37A G56C, 0.174.
Turning to A35U A43C, the self-cleavage worked out at 0.0178.
As for C37G G51C, the figure is 0.469; as for A36G A45U, 0.219; as for A36G A45G, 0.28.
For G34U G51C, the self-cleavage was 1.49.
Under A36C G56C stands 0.186; under A36C G56U, 0.216.
Under A36C G56A stands 0.09; under A35U A71C, 1.57.
As for A35G U55G, the figure is 0.283; as for A35G C38G, 0.129; as for A35G C38U, 0.371.
C37G G42U: the self-cleavage was determined as 0.0921.
Under A36U U60C stands 0.804; under A36U U60G, 0.246; under A35G A59C, 0.104.
Turning to A36U G51U, the self-cleavage is 0.648.
Regarding C37G A61G, the self-cleavage is 0.155.
Under A36G A41U stands 1.31; under C37G A39C, 0.163.
Under A35C U67C stands 0.217; under C37A U55C, 0.1.
C37A G42A: the self-cleavage amounted to 0.124.
Under A36U A64U stands 0.165; under A36C A59C, 0.0815.
As for A35U G51U, the figure is 0.794; as for A35U G51A, 0.965.
For A35U G51C, the self-cleavage was determined as 0.484.
Consider A36G G40A, for which the self-cleavage stood at 0.349.
As for A36G G40U, the figure is 0.0848; as for C37A C65A, 0.259; as for C37A C65U, 0.261.
As for A36U G56U, the figure is 0.21; as for A36G G56U, 0.183.
On to G34C G68A, for which the self-cleavage worked out at 0.723.
As for A35G A41C, the figure is 1.31; as for A35C U58A, 0.841; as for A35C U58G, 0.954.
As for A35C A59C, the figure is 0.258.
For C37G G56A, the self-cleavage was 0.204.
As for A36U A59U, the figure is 0.132; as for A35U C37U, 0.457.
As for A35U C37A, the figure is 0.406; as for A35C A41U, 1.35; as for G34U U55C, 1.36.
In the case of G34U U53A, the self-cleavage came to 1.46.
As for G34U U53C, the figure is 0.405.
Turning to G34U U53G, the self-cleavage came out at 1.58.
Under G34C U60A stands 1.16.
Turning to G34C U60C, the self-cleavage was found to be 1.41.
As to G34C U60G, the self-cleavage worked out at 0.828.
As for G34C U53A, the figure is 0.963; as for G34C U53G, 1.03; as for G34C U53C, 1.36.
For C37A A59G, the self-cleavage worked out at 0.241.
Under C37A A59C stands 0.137; under C37A A59U, 0.0631.
In the case of C37A C50A, the self-cleavage turned out to be 0.124.
As for C37A C50G, the figure is 0.128; as for A36C C50U, 0.222; as for G34U G69U, 1.1.
Regarding G34U G69C, the self-cleavage is 0.759.
As for A35U U58C, the self-cleavage was determined as 0.798.
As for A35U U58G, the figure is 0.553; as for G34U C48A, 0.497.
Consider G34U C48G, for which the self-cleavage turned out to be 0.371.
As for G34U U62A, the figure is 0.981; as for A36G G51U, 0.97; as for A35U C46G, 0.146.
On to A36G U52C, for which the self-cleavage stood at 1.24.
As for A35G G68U, the self-cleavage stood at 0.208.
Regarding A35G A39C, the self-cleavage stood at 0.257.
As for C37A G68A, the figure is 0.302; as for A35C A44U, 0.216.
As for A35C A44C, the figure is 0.0528.
Under G34U G40U stands 0.7; under G34C U55A, 1.16.
With G34C U55G, the self-cleavage was determined as 1.19.
As for A35C C46G, the figure is 0.0823; as for G34U A36U, 1.52.
In the case of C37G G40A, the self-cleavage is 0.0652.
With A36U A39U, the self-cleavage was 0.171.
As for A35G G57U, the figure is 0.205.
As for A35G G57A, the figure is 0.222; as for A35C U63A, 0.13; as for A35U U62A, 0.158.
Regarding A36C A43C, the self-cleavage is 0.07.
Turning to A36C A43U, the self-cleavage is 0.126.
Take G34U A61U: the self-cleavage was 1.13.
With A36C A45U, the self-cleavage was found to be 0.124.
For the variant C37A U70A, the self-cleavage was 0.368.
Consider C37A U70C, for which the self-cleavage was 0.438.
For the variant A36G C66A, the self-cleavage is 0.0924.
As for G34U U52A, the figure is 1.5; as for A35U G40U, 0.134; as for G34U A35U, 1.44.
As for G34U A71C, the figure is 1.72; as for A36U G57C, 0.172.
C37G A47G: the self-cleavage is 0.15.
In the case of A35G A36U, the self-cleavage came out at 0.695.
Under A35G A36C stands 0.495.
Take A35G C48U: the self-cleavage amounted to 0.132.
Under C37A A43C stands 0.0917; under C37A A43U, 0.15; under A36G U58G, 0.952.
Under G34C G69U stands 0.729.
G34U A59C: the self-cleavage amounted to 0.27.
Under A36G A39C stands 0.218; under A36C G51C, 0.562.
In the case of A35U G56C, the self-cleavage came to 0.124.
In the case of G34U C66U, the self-cleavage came out at 1.31.
As to G34U C66A, the self-cleavage came to 1.02.
As for G34U C66G, the figure is 0.548.
On to C37A A44C, for which the self-cleavage was found to be 0.203.
C37A A44G: the self-cleavage was determined as 0.208.

Values taken from the RNAGym collection of RNA variant scans (doi:10.7554/elife.80360).
